Results: publication PMC8264776

Target: T1, OsbHLH148 (bHLH148-6xHis) (Oryza sativa) (UniProt Q75KV9)
T1 sequence: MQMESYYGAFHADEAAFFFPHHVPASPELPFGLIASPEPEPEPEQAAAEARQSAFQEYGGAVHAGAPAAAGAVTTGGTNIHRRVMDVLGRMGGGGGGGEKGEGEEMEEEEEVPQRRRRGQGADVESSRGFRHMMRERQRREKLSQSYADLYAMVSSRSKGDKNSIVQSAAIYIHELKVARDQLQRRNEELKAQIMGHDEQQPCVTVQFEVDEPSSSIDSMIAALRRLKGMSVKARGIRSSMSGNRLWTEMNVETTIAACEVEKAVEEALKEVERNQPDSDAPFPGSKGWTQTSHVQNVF
Assay: EMSA
Conditions: 10 mM Tris pH 7.5, 50 mM KCl, 1 mM DTT, 2.5% glycerol, 5 mM MgCl (so in the source), 0.05% NP-40, 50 ng/ul poly(dI-dC); 20 min room temperature; 5% native PAGE

Sequence: AAATAAATAAGACAGACGATTAAAATTAGATACGTAAATCATGGCGGCGTTTAAAATGGGATGGATTGAGTAGTACACTGTACCAGCGTACCCTTTTGTACTCATAGGAAGACTTCGACATTTTCAAACACTTGAGGACAACTTTCCAATTCAATAACAATACTACTCCACACGTGGCTGAAATGGCTGAAAAAGTTCCA (double strand) [OsRAP2.6 promoter fragment]
- binding: binds
